Measurements reported in paper PMC5887309.

Target: DNMT3AC R882H (human, UniProt Q9Y6K1 612-912, R882H)
Assay: fluorescence anisotropy

Sequence of DNMT3AC R882H (Q9Y6K1 612-912 R882H): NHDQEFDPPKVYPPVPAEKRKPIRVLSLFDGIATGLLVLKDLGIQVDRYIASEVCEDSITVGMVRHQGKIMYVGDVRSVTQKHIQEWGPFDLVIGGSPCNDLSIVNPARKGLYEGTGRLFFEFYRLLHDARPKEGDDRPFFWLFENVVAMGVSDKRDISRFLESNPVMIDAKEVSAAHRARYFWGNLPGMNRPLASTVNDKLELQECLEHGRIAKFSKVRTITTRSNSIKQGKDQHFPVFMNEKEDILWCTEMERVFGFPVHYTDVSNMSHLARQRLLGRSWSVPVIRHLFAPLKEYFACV

B1: Cy5-labeled 29mer with two CpG sites (dsDNA)
DNA 1: ACTTGCAACGGTCCTAACCGTCACCTCTT
DNA 2: AAGAGGTGACGGTTAGGACCGTTGCAAGT
- Kd: 209 ± 19 nM
